The results in this text go back to publication PMC11509957, “A New Activity Assay Method for Diamine Oxidase Based on Matrix-Assisted Laser Desorption/Ionization Time-of-Flight Mass Spectrometry” (Molecules, 2024).

What all share (assay): purified protein
Format in all cases: biochemical, Lathyrus oleraceus

Substrate in series [1]: NCCCCCN
The note with it: 0.1 mol/L potassium phosphate pH 7.0, 30 °C, O2 co-substrate, excess substrate inhibition above 500 µmol/L.

Substrate in series [2]: NCC1CCNCC1
The note with it: 0.1 mol/L potassium phosphate pH 7.0, 30 °C, O2 co-substrate.

Substrate in series [3]: NCCCCCCN
The note with it: 0.1 mol/L potassium phosphate pH 7.0, 30 °C, O2 co-substrate, excess substrate inhibition above 500 µmol/L.

Substrate in series [4]: N=C(N)NCCCCN
The note with it: 0.1 mol/L potassium phosphate pH 7.0, 30 °C, O2 co-substrate.

Substrate in series [5]: NCCC(O)CN
The note with it: 0.1 mol/L potassium phosphate pH 7.0, 30 °C, O2 co-substrate.

Substrate in series [6]: NCCCCN
The note with it: 0.1 mol/L potassium phosphate pH 7.0, 30 °C, O2 co-substrate.

B1: Pea seedling amine oxidase (PSAO); diamine oxidase (DAO) (Lathyrus oleraceus) (protein)
chain: VTPLHVQHPLDPLTKEEFLAVQTIVQNKYPISNNRLAFHYIGLDDPEKDHVLRYETHPTLVSIPRKIFVVAIINSQTHEILINLRIRSIVSDNIHNGYGFPILSVDEQSLAIKLPLKYPPFIDSVKKRGLNLSEIVCSSFTMGWFGEEKNVRTVRLDCFMKESTVNIYVRPITGITIVADLDLMKIVEYHDRDIEAVPTAENTEYQVSKQSPPFGPKQHSLTSHQPQGPGFQINGHSVSWANWKFHIGFDVRAGIVISLASIYDLEKHKSRRVLYKGYISELFVPYQDPTEEFYFKTFFDSGEFGFGLSTVSLIPNRDCPPHAQFIDTYVHSANGTPILLKNAICVFEQYGNIMWRHTENGIPNESIEESRTEVNLIVRTIVTVGNYDNVIDWEFKASGSIKPSIALSGILEIKGTNIKHKDEIKEDLHGKLVSANSIGIYHDHFYIYYLDFDIDGTHNSFEKTSLKTVRIKDGSSKRKSYWTTETQTAKTESDAKITIGLAPAELVVVNPNIKTAVGNEVGYRLIPAIPAHPLLTEDDYPQIRGAFTNYNVWVTAYNRTEKWAGGLYVDHSRGDDTLAVWTKQNREIVNKDIVMWHVVGIHHVPAQEDFPIMPLLSTSFELRPTNFFERNPVLKTLSPRDVAWPGCSN
notes: native enzyme purified to homogeneity from 7-day-old etiolated pea seedlings (roots and cotyledons removed); homodimer, 72 kDa subunit; Cu(II) and topaquinone
In general, Km refers to the substrate concentration at which the rate is half of its maximum. In general, kcat refers to the maximal rate divided by the concentration of active sites. For orientation: kcat/Km means the second-order rate constant that governs catalysis at low substrate concentration. With B1, the Km in the series “purified protein [1]” stood at 148 ± 8 µM; in the series “purified protein [2]” it was 618 ± 24 µM; in the series “purified protein [3]” it was 95 ± 7 µM; in the series “purified protein [4]” it was 446 ± 23 µM; in the series “purified protein [5]”, 589 ± 33 µM; in “purified protein [6]” it was 289 ± 15 µM. The kcat in the series “purified protein [1]” came out at 60.9 s⁻¹; in the series “purified protein [2]”, 4.2 s⁻¹; in the series “purified protein [3]”, 13 s⁻¹; in the series “purified protein [4]”, 8.4 s⁻¹; in “purified protein [5]” it was 4.9 s⁻¹; in the series “purified protein [6]”, 47.4 s⁻¹. Further, the kcat/Km in the series “purified protein [1]” was found to be 411000 M⁻¹ s⁻¹; in the series “purified protein [2]” it was 6800 M⁻¹ s⁻¹; in “purified protein [3]” it was 137000 M⁻¹ s⁻¹; in “purified protein [4]” it was 18800 M⁻¹ s⁻¹; in “purified protein [5]”, 8320 M⁻¹ s⁻¹; in “purified protein [6]”, 164000 M⁻¹ s⁻¹.
